This data set relates to thrombin.

Where two headings read alike, the source gives them in different places.

On to Bock-15, for which the binding signal (fold higher Kd than TBV-08) (Kd of TBV-08 stated as 300-fold lower than Bock-15) worked out at 300.

With Tasset-29, the binding signal (fold higher Kd than TBV-08) (Kd of TBV-08 stated as 200-fold lower than Tasset-29) came to 200.

The values above are taken from patent publication US20260201391.
